Measured values reported in patent US20250346679A1 (INVOX PHARMA, published 2025).
Where two headings read alike, the source gives them in different places.

What was measured:
hCD137-mFc-Avi = molecular target: T1, hCD137-mFc-Avi (human; mouse, UniProt Q07011 24-186, biotin on the Avi sequence where the biotinylated form was used); test: SPR, mAb^2 captured by anti-human Fab, antigen in flow
T1 construct: also called human CD137-mFc-Avi; dimeric human CD137; not shown: mouse IgG2a Fc domain (mIgG2a Fc)
T1 sequence (Q07011 24-186): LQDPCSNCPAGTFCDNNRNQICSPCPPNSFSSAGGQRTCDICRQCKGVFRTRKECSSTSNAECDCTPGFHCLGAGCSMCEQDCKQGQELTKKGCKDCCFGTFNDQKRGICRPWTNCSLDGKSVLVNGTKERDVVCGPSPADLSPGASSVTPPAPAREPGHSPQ
Description: (§1) The binding of the anti-human CD137/PD-L1 mAb² to recombinant dimeric human and cynomolgus CD137 antigens was also measured by SPR using a Biacore T200 processing unit (GE Healthcare).
(§2) Briefly, 20 μg/ml anti-human Fab antibody (GE Healthcare, Human Fab Capture kit 28958325) was coated on flow cells 1, 2, 3 and 4 of a Biacore sensor S chip CM5 (GE Healthcare, BR100530) achieving a final response of approximately 5000 RU. […] The recombinant dimeric antigens, human CD137-mFc-Avi or cynomolgus CD137-mFc-Avi (see Example 1.1 for antigen details) diluted in HBS-EP buffer, were injected on flow cell 1, 2, 3 or 4 as appropriate at a concentration range of 81 nM to 0.037 nM with 3-fold dilutions for 4 minutes at 70 μl/min and then allowed to dissociate in buffer for 10 minutes. Regeneration was achieved by injecting 10 mM glycine pH 2.1 (GE Healthcare, Human Fab Capture kit 28958325) for 60 seconds at a rate of 30 μl/min. Data analysis was performed as described in Example 9.1.

cCD137-mFc-Avi = molecular target: T2, cCD137-mFc-Avi (cynomolgus; mouse); test: as above
T2 construct: also called cynomolgus CD137-mFc-Avi; Cyno CD137-mFc-Avi; not shown: mouse IgG2a Fc domain (mIgG2a Fc)
T2 chain: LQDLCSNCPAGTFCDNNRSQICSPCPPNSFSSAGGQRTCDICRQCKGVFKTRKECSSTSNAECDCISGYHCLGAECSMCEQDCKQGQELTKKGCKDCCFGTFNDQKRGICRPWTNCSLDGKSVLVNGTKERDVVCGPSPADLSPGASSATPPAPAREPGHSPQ
Description: as §1, §2

[1] = molecular target: T3, mouse FcRn (R&D systems, 9114-Fc) (mouse, UniProt Q61559 22-297; P01887 21-119, limits assumed); test: SPR, mAb^2 immobilised, FcRn in flow, pH 6.0, steady state affinity; pH 6.0
T3 sequence (looked up) 1: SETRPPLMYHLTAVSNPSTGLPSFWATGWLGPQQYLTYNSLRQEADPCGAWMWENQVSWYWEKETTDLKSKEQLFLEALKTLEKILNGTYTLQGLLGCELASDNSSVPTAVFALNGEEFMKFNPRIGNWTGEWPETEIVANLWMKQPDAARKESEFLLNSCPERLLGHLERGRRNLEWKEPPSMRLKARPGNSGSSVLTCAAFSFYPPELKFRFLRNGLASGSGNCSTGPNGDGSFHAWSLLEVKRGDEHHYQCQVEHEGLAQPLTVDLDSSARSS
T3 sequence (looked up) 2: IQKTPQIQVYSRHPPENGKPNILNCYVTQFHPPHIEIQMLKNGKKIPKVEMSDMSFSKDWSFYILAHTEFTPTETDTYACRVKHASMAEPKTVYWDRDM
Text: (§3) The neonatal Fc receptor (FcRn) binding is critical for antibody recycling (Martins et al., 2016). […] G1-AA/HeID1.3 was included as an isotype control IgG control lacking mutations in the CH3 domain.
(§4) Briefly, mAb² were individually coated on flow cell 2, 3 and 4 of Series S Sensor Chip CM5 (GE Healthcare, BR100530) to achieve a response of approximately 1000 RU. Flow cell 1 was activated/deactivated but left blank as a reference. Human FcRn (Acro Biosystems, FCM-H5286) or mouse FcRn (R&D systems, 9114-Fc) was dialysed and diluted in MHBS-EP⁺B pH 6.0 or pH 7.4 buffer (10 mM MES, FortéBio, 18-5026; 1×HBS-EP, GE Healthcare, BR100669; 0.1 mg/ml BSA, Sigma, A7906) and injected on flow cell 1, 2, 3 and 4 at 2000-3000 nM with 2-fold dilutions for 1 min at 80 μl/min and then allowed to dissociate in buffer for 3 min. […] Subtracted data (flow cell 2−flow cell 1, flow cell 3−flow cell 1, or flow cell 4−flow cell 1) was analysed using Biacore T200 Evaluation Software 2.0 to identify binding using the model steady state affinity.

[2] = molecular target: Human FcRn (Acro Biosystems, FCM-H5286) (human, UniProt P55899 24-297; P61769 21-119); test: as above
Sequence of Human FcRn (Acro Biosystems, FCM-H5286) (P55899 24-297 limits assumed, chain 1 of 2): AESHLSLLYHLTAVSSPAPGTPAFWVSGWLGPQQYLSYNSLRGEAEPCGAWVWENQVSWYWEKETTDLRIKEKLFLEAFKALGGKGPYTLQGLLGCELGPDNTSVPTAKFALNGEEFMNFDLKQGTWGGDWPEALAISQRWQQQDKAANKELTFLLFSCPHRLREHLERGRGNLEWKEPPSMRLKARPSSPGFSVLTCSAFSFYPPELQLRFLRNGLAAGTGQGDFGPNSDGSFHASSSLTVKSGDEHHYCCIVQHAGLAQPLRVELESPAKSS
Sequence of Human FcRn (Acro Biosystems, FCM-H5286) (P61769 21-119 limits assumed, chain 2 of 2): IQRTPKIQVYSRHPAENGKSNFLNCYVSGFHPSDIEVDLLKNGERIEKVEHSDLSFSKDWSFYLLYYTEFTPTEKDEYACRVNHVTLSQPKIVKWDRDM
Text: as §3, §4

[3] = molecular target: T4, human PD-L1, cell-surface (human, UniProt Q9NZQ7 19-290); test: cell-based or functional assay
T4 sequence (Q9NZQ7 19-290): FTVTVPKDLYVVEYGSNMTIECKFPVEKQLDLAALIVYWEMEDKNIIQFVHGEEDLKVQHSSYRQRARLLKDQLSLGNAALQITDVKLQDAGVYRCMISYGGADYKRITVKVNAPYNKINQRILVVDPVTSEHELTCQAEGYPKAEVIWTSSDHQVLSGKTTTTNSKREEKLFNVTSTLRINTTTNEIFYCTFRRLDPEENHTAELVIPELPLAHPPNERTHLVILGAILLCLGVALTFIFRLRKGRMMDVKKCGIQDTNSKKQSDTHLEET

[4] = molecular target: T4, human PD-L1, cell-surface; test: cell-based or functional assay; remark: listed apart in the source
[5] = molecular target: human CD137, cell-surface (human, UniProt Q07011 24-255); test: cell-based or functional assay
[6] = molecular target: T4, human PD-L1, cell-surface; test: flow cytometry on HEK.hPD-L1
Description: Non-specific binding was also assessed by testing binding to HEK293 parental cells lacking human PD-L1 (Flp-In T-Rex 293 cell line, Life Technologies, R780-07).
HEK293, HEK.hPD-L1 and HEK.cPD-L1 suspensions were prepared in FACS buffer (DPBS (Gibco, 14190-094) containing 0.5% BSA (Sigma, A7906)) and seeded at 1×10⁵ cell/well in 100 μl in round bottomed 96-well plates (VWR, 734-1797). […] The washed cells were resuspended in the diluted antibody mixture, incubated at 4° C. for 30 minutes, and then washed once in FACS buffer. […] Dead cells were excluded and the fluorescence in the APC channel (638 nm 660/20) was measured. The geometric mean fluorescence intensity (GMFI) values were plotted vs the log concentration of antibody and the resulting curves were fitted using the log (agonist) vs response equation in GraphPad Prism.

B1: FS22-172-003-AA/E12v2 (bispecific antibody, human IgG1, kappa, L234A L235A)
heavy: EVQLVQSGAEVKRPGASVKVSCKASGYPFTSYGISWVRQAPGQGLEWMGWISAYSGGTNYAQKLQGRVTMTTDTSTSTAYMELRSLRSDDTAVYYCARDLFPTIFGVSYYYYWGQGTLVTVSSASTKGPSVFPLAPSSKSTSGGTAALGCLVKDYFPEPVTVSWNSGALTSGVHTFPAVLQSSGLYSLSSVVTVPSSSLGTQTYICNVNHKPSNTKVDKKVEPKSCDKTHTCPPCPAPEAAGGPSVFLFPPKPKDTLMISRTPEVTCVVVDVSHEDPEVKFNWYVDGVEVHNAKTKPREEQYNSTYRVVSVLTVLHQDWLNGKEYKCKVSNKALPAPIEKTISKAKGQPREPQVYTLPPSRDELPYIIPPYNQVSLTCLVKGFYPSDIAVEWESNGQPENNYKTTPPVLDSDGSFFLYSKLTVGADRWLEGNVFSCSVMHEALHNHYTQKSLSLSPG
light: DIQMTQSPSTLSASVRDRVIITCRASQSIGNRLAWYQHKPGKAPKLLIYEASTSETGVPSRFSGSGSGTDFTLTISSLQPEDFATYYCQQSYSTPYTFGQGTKLEIKRTVAAPSVFIFPPSDEQLKSGTASVVCLLNNFYPREAKVQWKVDNALQSGNSQESVTEQDSKDSTYSLSSTLTLSKADYEKHKVYACEVTHQGLSSPVTKSFNRGEC
notes: PD-L1 site in the Fab, CD137 site in the CH3, LALA; also called anti-human CD137/PD-L1 mAb^2
Binder B1 has a Kd (hCD137-mFc-Avi) of 0.7 nM, a Kd (cCD137-mFc-Avi) of 0.8 nM and a Kd [1] of 158 nM. For the same binder, the Kd [2] was 1120 nM, the “EC50 (nM), IFN-γ release, human MLR” value [3] was 0.02 nM and the “Emax (pg/ml), IFN-γ release, human MLR” value [3] was 2630 pg/mL. The “EC50 (nM), IFN-γ release, human MLR” value [4] was 0.07 nM, the “EC50 (nM), IFN-γ release, CEF antigen recall assay (CD8+ T cell activation)” value [5] was 0.03 nM and the EC50 [6] was 3.7 nM.
